Data published in patent US20150266963A1 (ARGEN X B V, published 2015).
Values belong to the binder of their own block, whether it stands above or below them.

B2: recombinant human CD70 (Flag-TNC-CD70) (ligand, UniProt P32970 39-193, looked up)
chain: QRFAQAQQQLPLESLGWDVAELQLNHTGPQQDPRLYWQGGPALGRSFLHGPELDKGQLRIHRDGIYMVHIQVTLAICSSTTASRHHPTTLAVGICSPASRSISLLRLSFHQGCTIASQRLTPLARGDTLCTNLTGTLLPSRNTDETFFGVQWVRP
notes: extracellular domain; Captured by anti-Flag mAb in ELISA; as 'recombinant human CD70' immobilised on Biacore CM5 chips; TNC is for trimerisation; also called recombinant CD70; human recombinant CD70; not shown: Flag tag and TNC trimerisation domain
B3: recombinant human CD27 Fc chimera (CD27-Fc) (Fc fusion, UniProt P26842 21-192, looked up)
chain: TPAPKSCPERHYWAQGKLCCQMCEPGTFLVKDCDQHRKAAQCDPCIPGVSFSPDHHTRPHCESCRHCNSGLLVRNCTITANAECACRNGWQCRDKECTECDPLPNPSLTARSSQALSPHPQPTHLPYVSEMLEARTAGHMQTLADFRQLPARTLSTHWPPQRSLCSSDFIRI
notes: Bought reagent; also called recombinant CD27-Fc; Fc part of the bought chimera not given

Experiments:
[1] = molecular target: B2; test: Biacore; recombinant human CD70 on CM5 chip; Fab from papain digestion
Experimental: (§1) Recombinant human CD70 was immobilized on a CM5 Biacore chip. The immobilization was performed in accordance with a method provided by Biacore and by using the NHS/EDC kit (Biacore AB): after activation of the chip, a solution of 50 μg/ml of recombinant CD70 in 10 mM acetate buffer with pH of 5 was prepared and 1 μl of this solution (50ng) was injected resulting in a surface density of approximately 1000 RU.
Fabs were prepared for the CD70 mAbs ARGX-110, MDX1411 and SGN70 by papain digestion. These Fabs, at a concentration of approximately 100-400 μg/ml, were diluted 6-fold in HEPES-buffered saline (0.1M HEPES, 1.5M NaCl, 30 mM EDTA, 0.5% v/v surfactant P20). They were injected (30 μl) and passed through the flow cells at a flow rate of 30 μl/min. After binding of the Fab to CD70, the off-rate was monitored for a period of 10 minutes. After dissociation, the flow cell surfaces were regenerated by injecting 5 μl of 10 mM NaOH. Sometimes multiple injections of NaOH were needed to regenerate the surfaces depending on the affinity of the Fabs. Off-rate analysis was done by applying the BIAevaluation software. First, the sensogram of the blank runs were subtracted from those obtained with the coated flow cell.

[2] = molecular target: B3; test: Biacore off-rate analysis, CD27 passed over coated CD70
Experimental: as §1, with “Off-rates of the purified llama-derived anti-CD70 blocking Fabs were determined using the Biacore. Recombinant” for “Recombinant”
(§2) Fabs for the CD70 mAbs ARGX-110, MDX2H5 and SGN70 were prepared by […] digestion (SGN70 and MDX69A7 are described elsewhere herein, MDX2H5, also referred to as MDX1411, is described in WO2008/074004 FIGS. 1A and 1B). Fabs, at a concentration of approximately 100-400 μg/ml, were diluted 6-fold in hepes-buffered saline (0.1M Hepes, 1.5M NaCl, 30 mM EDTA, 0.5% v/v surfactant P20). They were injected (30 μl) and passed through the flow cells at a flow rate of 30 μl/min. After binding of the Fab to CD70, the off-rate was monitored for a period of 10 minutes. After the dissociation, the flow cell surfaces were regenerated by injecting 5 μl of 10 mM NaOH. Sometimes multiple injections of NaOH were needed to regenerate the surfaces depending on the affinity of the Fabs. […] Moreover, the off-rate of CD27 for CD70 was determined as well.

CD27 = molecular target: T1, CD27 (UniProt P26842 21-192, limits assumed); test: Biacore; recombinant human CD70 on CM5 chip; CD27 injected
T1 sequence (looked up): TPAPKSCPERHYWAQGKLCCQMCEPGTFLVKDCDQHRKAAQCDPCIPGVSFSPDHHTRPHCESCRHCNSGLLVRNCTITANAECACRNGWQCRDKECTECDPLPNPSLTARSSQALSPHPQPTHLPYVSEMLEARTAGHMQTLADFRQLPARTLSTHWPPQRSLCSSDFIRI
Experimental: as §1, with “Off-rates of the purified llama-derived anti-CD70 blocking Fabs were determined using the Biacore. Recombinant” for “Recombinant”
as §2

[3] = molecular target: T2, human-mouse CD70 chimera chim-2.2 (Flag-TNC-CD70); test: ELISA; chimera captured by anti-Flag mAb; anti-human-Fc-HRP
T2 construct: also called chimera 2.2; not shown: N-terminal Flag tag, TNC trimerisation domain and any linkers of the Flag-TNC-CD70 construct
T2 chain: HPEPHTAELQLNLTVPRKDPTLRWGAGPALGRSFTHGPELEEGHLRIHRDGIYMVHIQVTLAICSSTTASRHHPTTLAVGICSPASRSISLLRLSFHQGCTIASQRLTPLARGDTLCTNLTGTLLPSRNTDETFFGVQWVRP
Experimental: (§3) A Maxisorb (Nunc) microtiter plate was coated with 3.5 μg/ml mouse M2 anti-Flag mAb (Sigma Aldrich, F3165) and the different chimeras were captured. A dilution series of the CD70 mAbs to be tested was applied starting at a concentration of 10 μg/ml and making 3-fold dilutions. After 2 hours, binding was detected using anti-human-Fc-HRP at a 16000-fold dilution. Staining was done with ABTS and OD at 405 nm was measured. As a positive control, CD27-Fc was applied which is able to bind to both human and mouse CD70 with good affinity as well as to the chimeric human-mouse CD70 variants.

[4] = molecular target: T3, human-mouse CD70 chimera chim-2.4 (Flag-TNC-CD70); test: as above
T3 construct: also called chimera 2.4
T3 chain: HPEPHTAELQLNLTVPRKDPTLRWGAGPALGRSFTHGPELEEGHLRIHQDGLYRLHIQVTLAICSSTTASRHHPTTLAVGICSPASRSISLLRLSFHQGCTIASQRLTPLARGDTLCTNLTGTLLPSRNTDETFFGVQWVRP
Experimental: as §3

[5] = molecular target: T4, human-mouse CD70 chimera chim-2 (Flag-TNC-CD70); test: as above
T4 construct: also called chimera 2
T4 chain: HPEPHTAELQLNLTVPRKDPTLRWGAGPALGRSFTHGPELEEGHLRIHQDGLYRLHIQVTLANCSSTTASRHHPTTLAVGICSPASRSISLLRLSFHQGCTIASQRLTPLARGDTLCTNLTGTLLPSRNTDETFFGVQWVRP
Experimental: as §3

[6] = molecular target: T5, human-mouse CD70 chimera chim-3 (Flag-TNC-CD70); test: as above
T5 construct: also called chimera 3
T5 chain: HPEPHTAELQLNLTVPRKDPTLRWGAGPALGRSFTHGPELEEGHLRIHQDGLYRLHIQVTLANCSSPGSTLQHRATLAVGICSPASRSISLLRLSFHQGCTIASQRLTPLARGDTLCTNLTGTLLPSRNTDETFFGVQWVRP
Experimental: as §3

[7] = molecular target: T6, human-mouse CD70 chimera chim-4 (Flag-TNC-CD70) (Mus musculus (Mouse), UniProt O55237 54-192); test: as above
T6 construct: also called chimera 4
T6 chain: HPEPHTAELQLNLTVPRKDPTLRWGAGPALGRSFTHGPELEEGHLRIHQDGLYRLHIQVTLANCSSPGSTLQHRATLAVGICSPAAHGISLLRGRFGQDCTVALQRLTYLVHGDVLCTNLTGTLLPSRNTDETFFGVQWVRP
Experimental: as §3

[8] = molecular target: T7, human-mouse CD70 chimera chim-1 (Flag-TNC-CD70) (Homo sapiens (Human), UniProt P32970 58-193, Soluble homotrimer held by the TNC domain; one CD70 ECD chain is given.); test: as above
T7 construct: also called chimera 1; not shown: N-terminal Flag tag, TNC (tenascin-C) trimerisation domain and any linkers of the Flag-TNC-CD70 construct
T7 chain: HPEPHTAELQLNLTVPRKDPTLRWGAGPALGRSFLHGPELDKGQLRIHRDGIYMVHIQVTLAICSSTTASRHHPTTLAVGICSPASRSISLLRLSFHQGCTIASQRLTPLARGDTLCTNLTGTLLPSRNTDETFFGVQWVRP
Experimental: as §3

[9] = molecular target: T8, human-mouse CD70 chimera chim-2.1 (Flag-TNC-CD70) (Soluble homotrimer held by the TNC domain; one CD70 ECD chain is given.); test: as above
T8 construct: also called chimera 2.1; not shown: N-terminal Flag tag, TNC (tenascin-C) trimerisation domain and any linkers of the Flag-TNC-CD70 construct
T8 chain: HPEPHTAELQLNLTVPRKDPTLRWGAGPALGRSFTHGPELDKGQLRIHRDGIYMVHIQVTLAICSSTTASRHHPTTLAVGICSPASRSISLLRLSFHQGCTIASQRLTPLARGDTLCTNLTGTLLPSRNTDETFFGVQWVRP
Experimental: as §3

[10] = molecular target: B2; test: ELISA; Flag-TNC-CD70 captured by anti-Flag mAb; anti-human-Fc-HRP
Experimental: as §3

mouse Flag-TNC-CD70 = molecular target: T9, mouse Flag-TNC-CD70 (mouse, UniProt O55237 45-195); test: ELISA; mouse Flag-TNC-CD70 captured by anti-Flag mAb; anti-human-Fc-HRP
T9 construct: extracellular domain; also called mouse CD70; not shown: Flag tag and TNC trimerisation domain
T9 sequence (looked up): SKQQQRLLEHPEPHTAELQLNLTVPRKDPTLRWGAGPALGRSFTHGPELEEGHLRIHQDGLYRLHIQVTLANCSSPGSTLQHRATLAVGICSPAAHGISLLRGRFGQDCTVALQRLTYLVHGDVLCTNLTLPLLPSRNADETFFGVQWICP
Experimental: as §3

- koff [1]: 0.00014 s⁻¹
B1: ARGX-110 Fab (Fab, V domains shown)
VH: EVQLVESGGGLVQPGGSLRLSCAASGFTFSVYYMNWVRQAPGKGLEWVSDINNEGGTTYYADSVKGRFTISRDNSKNSLYLQMNSLRAEDTAVYYCARDAGYSNHVPIFDSWGQGTLVTVSS
VL: QAVVTQEPSLTVSPGGTVTLTCGLKSGSVTSDNFPTWYQQTPGQAPRLLIYNTNTRHSGVPDRFSGSILGNKAALTITGAQADDEAEYFCALFISNPSVEFGGGTQLTVLG

Binder: B2
- koff [2]: 8e-05 s⁻¹
- koff (CD27): 8e-05 s⁻¹

Binder: B3
- EC50 [3]: 0.056 µg/mL
- EC50 [4]: 0.076 µg/mL
- EC50 [5]: 0.099 µg/mL
- EC50 [6]: 0.094 µg/mL
- EC50 [7]: 0.051 µg/mL
- EC50 [8]: 0.159 µg/mL
- EC50 [9]: 0.051 µg/mL
- EC50 [10]: 0.079 µg/mL
- EC50 (mouse Flag-TNC-CD70): 0.041 µg/mL
